Test results from patent publication US20190233522A1, “NEW DOSAGE REGIMENS FOR ANTIBODY DRUG CONJUGATES BASED ON ANTI-AXL ANTIBODIES” (GENMAB A/S, priority 2016, published 2019).
Changes are numbered by the printed parent chain. Names may count otherwise.

How the values were obtained:
[1] = tested on: LCLC-103H xenograft tumors; experiment: Therapeutic treatment of SC LCLC-103H tumor xenografts (Example 3); assay type: in vivo, SCID mice; conditions: for tumor volume versus control IgG1-b12: day 30, One Way ANOVA (Dunnett's); for anti-tumor activity in established SC LCLC-103H tumors: single i.p. injection 1 mg/kg, SCID mice
Description: The in vivo efficacy of MMAE-conjugated anti-AXL antibodies was determined in established subcutaneous (SC) LCLC-103H xenograft tumors in SCID mice. 5×10^6 LCLC-103H (large cell lung carcinoma) tumor cells (obtained from Leibniz-Institut DSMZ-Deutsche Sammlung von Mikroorganismen and Zellkulturen GmbH (DSMZ)) in 200 μL PBS were injected subcutaneously in the right flank of female SCID mice. Starting 14-21 days after tumor cell inoculation, when the average tumor size was >100-200 mm^3 and distinct tumor growth was observed, a single injection with 1 mg/kg (20 μg/mouse) IgG1-AXL-vcMMAE antibodies or control (unconjugated IgG1-b12) was given intraperitoneally (100 μL/mouse). Tumor volume was determined at least two times per week. Tumor volumes (mm^3) were calculated from caliper (PLEXX) measurements as: 0.52×(length)×(width)^2.

A431 tumors = experiment: A431 xenograft model (high Gas6); assay type: in vivo; conditions: 3 mg/kg i.p., SCID mice
Description: (§1) Tumor induction was performed by subcutaneous injection of 5×10^6 A431 or LCLC-103H tumor cells (both obtained from Leibniz-Institut—Deutsche Sammlung von Mikroorganismen and Zellkulturen GmbH (DSMZ)) in 200 μL PBS in the right flank of female SCID mice. Treatment was started 14-21 days after tumor cell inoculation, when the average tumor size was >100-200 mm^3 and distinct tumor growth was observed. Mice received a single injection or a total of 4 biweekly intraperitoneal injections with IgG1-AXL-vcMMAE ADCs or control antibody (unconjugated IgG1-b12), as indicated. Tumor volume was determined at least two times per week. Tumor volumes (mm^3) were calculated from caliper (PLEXX) measurements as: 0.52×(length)×(width)^2.

LCLC-103H tumors = experiment: LCLC-103H xenograft model (low Gas6, Example 5); assay type: in vivo; conditions: 3 mg/kg i.p., SCID mice
Description: as §1

CEXF 773 tumors = experiment: Cervix carcinoma PDX model CEXF 773; assay type: in vivo, NMRI nu/nu mice; conditions: for anti-tumor activity on CEXF 773 tumors: 4 mg/kg i.v. day 0 and day 7; for average tumor size versus IgG1-b12 and IgG1-b12-vcMMAE: day 28, 4 mg/kg i.v. day 0 and 7, p<0.001
Description: The anti-tumor activity of IgG1-AXL-183-vcMMAE and IgG1-AXL-726-vcMMAE was evaluated in the patient derived cervix carcinoma xenograft CEXF 773 model in NMRI nu/nu mice (Harlan, Netherlands). Experiments were performed by Oncotest (Freiburg, Germany).
Tumor fragments were obtained from xenografts in serial passage in nude mice. After removal from donor mice, tumors were cut into fragments (4-5 mm diameter) and placed in PBS (with 10% penicillin/streptomycin) until subcutaneous implantation. Mice under isofluorane anesthesia received unilateral, subcutaneous tumor implants in the flank. Tumors were allowed to grow until the tumor volume was 50-250 mm^3.
The treatment groups were: IgG1-b12, IgG1-b12-vcMMAE, IgG1-AXL-183-vcMMAE and IgG1-AXL-726-vcMMAE. The antibodies and ADCs were dosed intravenously (i.v.) at 4 mg/kg on the day of randomization (day 0) and on day 7. Tumor volumes (mm^3) were monitored twice weekly and were calculated from caliper (PLEXX) measurements as: 0.52×(length)×(width)^2.

MDA-MB-231 tumors = experiment: Orthotopic MDA-MB-231 D3H2LN breast cancer xenograft model; assay type: in vivo, SCID mice; conditions: for anti-tumor activity on MDA-MB-231 tumors: 4 biweekly doses of 3 mg/kg; for average tumor size versus IgG1-b12 and IgG1-b12-vcMMAE: day 32, 4 biweekly doses of 3 mg/kg, P<0.001 One Way Anova
Description: The anti-tumor activity of IgG1-AXL-183-vcMMAE and IgG1-AXL-726-vcMMAE was evaluated in an orthotopic MDA-MB-231 D3H2LN xenograft model.
MDA-MB-231-luc D3H2LN Bioware cells (mammary gland adenocarcinoma; Perkin Elmer, Waltham, Mass.) were implanted in the mammary fat pad of 6-11 week old, female SCID (C.B-17/IcrPrkdc-scid/CRL) mice (Charles-River) under isofluorane anesthesia. Tumors were allowed to grow and mice were randomized when tumors reached a volume of ˜325 mm^3. […] The treatment groups were: IgG1-b12, IgG1-b12-vcMMAE, IgG1-AXL-183-vcMMAE and IgG1-AXL-726-vcMMAE. The animals received a total of 4 biweekly doses of 3 mg/kg antibody or ADC starting at the day of randomization. Tumor volumes (mm^3) were monitored twice weekly and were calculated from caliper (PLEXX) measurements as: 0.52×(length)×(width)^2.

PAXF1657 tumors = experiment: PAXF1657 pancreas cancer PDX model; assay type: in vivo, NMRI nu/nu mice
Description: Human pancreas tumor tissue was subcutaneously implanted in the left flank of 5-7 weeks old female NMRI nu/nu mice. […] At day of randomization (day 0), the 3 ADCs were dosed intravenously (i.v.) at either 4 mg/kg or 2 mg/kg, and the control group received a single dose of IgG1-b12 (4 mg/kg). Tumor volumes (mm^3) were monitored twice weekly and were calculated from caliper (PLEXX) measurements as: 0.52×(length)×(width)^2.

[2] = Pre-clinical PK studies in cynomolgus monkey; assay type: in vivo
Source text: Data from 5 in-vivo pre-clinical studies, shown in the Table below, were provided, containing measurements of the plasma ADC level, plasma IgG level, and plasma MMAE level (only measured in study 5).
All studies appeared to show a significant drop in plasma concentrations of ADC/IgG after the 2nd dose when compared to the first dose, which corresponded with an ADA response. As this is a fully human antibody, ADA response are only very rarely expected to occur in humans. Therefore, only data after the first dose were included in the data preparation and subsequently modelled.

B1: IgG1-AXL-183-N52Q-vcMMAE: anti-AXL antibody 183-N52Q (VH SEQ ID No 17, VL SEQ ID No 18) conjugated to vcMMAE (conjugate)
VH: QVQLQQWGAGLLKPSETLSLTCAVYGGSFSGYYWSWIRQPPGKGLEWIGEIQQSGSTNYNPSLKSRVTISVDTSKNQFSLKLSSVTAADTSVYYCASGNWDHFFDYWGQGTLVTVSS
VL: DIQMTQSPSSVSASVGDRVTITCRASQGISSWLAWYQHKPGKAPKLLIYATSSLQSGVTSRFSGSGSGTDFTLTISSLQPEDFATYYCQQAKSFPWTFGQGTKVEIK
modifications: vc-MMAE conjugate; homo sapiens
tumor volume versus control IgG1-b12 ([1]; 1 mg/kg single i.p.): not significant affected | anti-tumor activity in established SC LCLC-103H tumors [1]: no or only minor tumor growth inhibition

B2: IgG1-AXL-183-vcMMAE: anti-AXL antibody 183 (FN1-binder) conjugated to vcMMAE (conjugate)
VH: B1 VH with Q52N
VL: B1 VL
anti-tumor activity on A431 tumors (A431 tumors): induced growth inhibition | anti-tumor activity in the LCLC-103H xenograft model (LCLC-103H tumors): induced tumor regression | anti-tumor activity on CEXF 773 tumors (CEXF 773 tumors): induced tumor regression | average tumor size versus IgG1-b12 and IgG1-b12-vcMMAE (CEXF 773 tumors): significantly smaller | anti-tumor activity on MDA-MB-231 tumors (MDA-MB-231 tumors): induced tumor regression | average tumor size versus IgG1-b12 and IgG1-b12-vcMMAE (MDA-MB-231 tumors): significantly smaller

B3: IgG1-AXL-148 (antibody, V domains shown)
VH: EVQLLESGGGLVQPGGSLRLSCAASGFTFSSYAMTWVRQAPGKGLEWVSAISISGGSTFYADSVKGRFTISRDNSKNTLYLQMNSLRAEDTAVYYCRGYSGYVYDAFDFWGQGTMVTVSS
VL: DIQMTQSPSSLSASVGDRVTITCRASQGISNWLAWYQQKPEKAPKSLIYAASSLQSGVPSRFSGSGSGTDFTLTISSLQPEDFATYYCQQYNSYPLTFGGGTKVEIK
anti-tumor activity in the PAXF1657 model (PAXF1657 tumors; dose not given): did not result in anti-tumor activity | pharmacokinetic properties, unconjugated antibody (study 3) versus ADC (study 2) [2]: similar

B4: IgG1-AXL-726-vcMMAE: anti-AXL antibody 726 (FN2-binder) conjugated to vcMMAE (conjugate)
VH: QVQLQQWGAGLLKPSETLSLTCAIDGGSFSGYYWSWIRQPPGKGLEWIGEISHSGRTNYNPSLKSRVTISIDTSKNQFSLKLSSVAAADTAVYYCARFITMIRGAIITHFDYWGQGALVTVSS
VL: B3 VL with N31S, N92H, L96Y, G100Q, V104L
anti-tumor activity on A431 tumors (A431 tumors): induced growth inhibition | anti-tumor activity in the LCLC-103H xenograft model (LCLC-103H tumors): induced tumor regression | anti-tumor activity on CEXF 773 tumors (CEXF 773 tumors): induced tumor regression | average tumor size versus IgG1-b12 and IgG1-b12-vcMMAE (CEXF 773 tumors): significantly smaller | anti-tumor activity on MDA-MB-231 tumors (MDA-MB-231 tumors): induced tumor regression | average tumor size versus IgG1-b12 and IgG1-b12-vcMMAE (MDA-MB-231 tumors): significantly smaller

B5: IgG1-AXL-726-M101L-vcMMAE: anti-AXL antibody 726-M101L (VH SEQ ID No 32, VL SEQ ID No 33) conjugated to vcMMAE (conjugate)
VH: B4 VH with M101L
VL: B3 VL with N31S, N92H, L96Y, G100Q, V104L
modifications: vc-MMAE conjugate; homo sapiens
tumor volume versus control IgG1-b12 ([1]; 1 mg/kg single i.p.): not significant affected | anti-tumor activity in established SC LCLC-103H tumors [1]: no or only minor tumor growth inhibition

B6: IgG1-AXL-511-vcMMAE: anti-AXL antibody 511 (VH SEQ ID No 136, VL SEQ ID No 140) conjugated to vcMMAE (conjugate)
VH: EVQLLESGGGLVQPGGSLRLSCAASGFTFSSYAMNWVRQAPGKGLEWVSGISGSGGHTYHADSVKGRFTISRDNSKNTLYLQMNSLRAEDTAVYYCAKDRYDILTGYYNLLDYWGQGTLVTVSS
VL: B3 VL with N31S, K42E, T102A
modifications: vc-MMAE conjugate; homo sapiens
tumor volume versus control IgG1-b12 ([1]; 1 mg/kg single i.p.): significant tumor growth inhibition | anti-tumor activity in established SC LCLC-103H tumors [1]: induced tumor growth inhibition

B7: IgG1-AXL-733-vcMMAE: anti-AXL antibody 733 (VH SEQ ID No 34, VL SEQ ID No 35) conjugated to vcMMAE (conjugate)
VH: QVQLVESGGGVVQPGRSLRLSCAASGFSFSTYAMHWVRQAPGKGLEWVAVISYDGDNKYSADSVKGRFTISRDNSKNTLYLQMNSLRAEDTAVYYCARGRKLGIDAFDIWGQGTMVTVSS
VL: AIQLTQSPSSLSASVGDRVTITCRASQGISSALAWYQQKPGKAPKLLIYDASSLESGVPSRFSGSGSGTDFTLTISGLQPEDFATYYCQQFNSYPFTFGPGTKVDIK
modifications: vc-MMAE conjugate; homo sapiens
complete tumor reduction ([1]; 1 mg/kg single i.p.): in some mice within these groups to complete tumor reduction | tumor volume versus control IgG1-b12 ([1]; 1 mg/kg single i.p.): highly significant difference | anti-tumor activity in established SC LCLC-103H tumors [1]: induced tumor regression | growth of PAXF1657 tumors compared to the control group (PAXF1657 tumors; 2 mg/kg i.v., day 0): significantly reduced the growth | anti-tumor activity on PAXF1657 tumors (PAXF1657 tumors; 4 mg/kg i.v., day 0): induced tumor regression | average tumor size versus isotype control IgG1-b12 (PAXF1657 tumors; day 14, 2 mg/kg or 4 mg/kg, p<0.001 Tukey's multiple comparison test): significantly smaller | anti-tumor activity on A431 tumors (A431 tumors): induced growth inhibition
